The target of test [1] is E-cad/α monomer (recombinant; entire E-cadherin cytoplasmic tail fused to αE-catenin) (mouse) (UniProt P09803). Briefly: ITC. Background: In ITC the heat of successive injections is recorded.
For test [2], the target named is E-cadΔ70/α monomer (recombinant; E-cadherin cytoplasmic tail lacking the C-terminal 70 aa fused to αE-catenin) (mouse) (UniProt P09803). Nature of the test: ITC.
For test [3], the target named is F-actin (polymerised chicken muscle G-actin) (chicken) (UniProt P68139). Nature of the test: co-sedimentation.

pKd: −log10 of the molar value.

By pKd is commonly meant −log10 of the Kd, conventionally taken in molar units. By stoichiometry N is commonly meant a count of units in the complex or per binding partner. Consider “β-catenin (full-length mouse, recombinant) (from UniProt Q02248 1-781) (natural protein)”, for which, in test [1], the negative logarithm of the Kd (pKd) was 7.13 and the dH was -58 kcal/mol. Also, in test [2], the pKd was 7.44, the dH was -16.9 kcal/mol and the stoichiometry N was determined as 1.
As to “E-cadΔ70/α homodimer (recombinant) (from UniProt P09803 736-815) (complex)”, the negative-log Kd (pKd) in test [3] is 5.80.

Values taken from publication PMC4586751.
